Molecular target: CREB1 (recombinant, Ni-affinity purified) (UniProt P16220 1-327)
Assay: EMSA; LightShift EMSA kit: 2 ul 5x binding buffer, 6 ul CREB1, 1 ul probe, 25 C, 20 min; salt and pH not stated
Conditions: protein: recombinant; (Ni-chelating purification); chain copies: 2; label: 5' 6-FAM (FITC) on forward strand (Methods); blunt

Sequence of CREB1 (recombinant, Ni-affinity purified) (P16220 whole entry): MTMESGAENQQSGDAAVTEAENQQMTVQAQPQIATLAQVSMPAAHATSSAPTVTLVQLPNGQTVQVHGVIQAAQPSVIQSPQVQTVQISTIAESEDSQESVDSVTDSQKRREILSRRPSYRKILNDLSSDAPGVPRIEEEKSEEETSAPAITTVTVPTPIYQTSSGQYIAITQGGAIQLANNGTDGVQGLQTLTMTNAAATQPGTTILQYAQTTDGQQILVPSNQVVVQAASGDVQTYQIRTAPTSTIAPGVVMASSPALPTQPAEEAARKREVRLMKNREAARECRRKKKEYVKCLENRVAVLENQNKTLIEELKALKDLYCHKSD

B1: MITF-wt probe (dsDNA)
DNA 1: TGGATGTCTTTTCTGATGTGAAATTAAA
DNA 2: TTTAATTTCACATCAGAAAAGACATCCA
binding result: binds
